Assay results from publication doi:10.1101/2020.02.02.931204.

Target: HA-SFPQ (human) (UniProt P23246)
Assay: co-IP

Myc-KLC1 ΔTail (domain or fragment), sequence (O88447 whole entry, stated change not applied, the tested form may be a part): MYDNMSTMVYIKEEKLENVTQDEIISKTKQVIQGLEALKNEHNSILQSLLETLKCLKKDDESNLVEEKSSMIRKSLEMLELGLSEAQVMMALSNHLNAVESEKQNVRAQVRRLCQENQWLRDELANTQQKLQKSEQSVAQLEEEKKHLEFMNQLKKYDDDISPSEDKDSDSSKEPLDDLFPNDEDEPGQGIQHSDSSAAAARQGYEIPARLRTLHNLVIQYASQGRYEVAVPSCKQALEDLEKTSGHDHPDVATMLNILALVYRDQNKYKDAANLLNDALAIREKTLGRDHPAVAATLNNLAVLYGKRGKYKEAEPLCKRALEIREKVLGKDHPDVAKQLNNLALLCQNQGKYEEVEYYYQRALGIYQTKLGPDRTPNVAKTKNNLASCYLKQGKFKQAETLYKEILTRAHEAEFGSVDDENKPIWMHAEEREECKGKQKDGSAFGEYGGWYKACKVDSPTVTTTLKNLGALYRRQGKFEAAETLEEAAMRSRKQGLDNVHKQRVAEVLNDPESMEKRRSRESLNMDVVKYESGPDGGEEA
HA-SFPQ (human), sequence (P23246 whole entry): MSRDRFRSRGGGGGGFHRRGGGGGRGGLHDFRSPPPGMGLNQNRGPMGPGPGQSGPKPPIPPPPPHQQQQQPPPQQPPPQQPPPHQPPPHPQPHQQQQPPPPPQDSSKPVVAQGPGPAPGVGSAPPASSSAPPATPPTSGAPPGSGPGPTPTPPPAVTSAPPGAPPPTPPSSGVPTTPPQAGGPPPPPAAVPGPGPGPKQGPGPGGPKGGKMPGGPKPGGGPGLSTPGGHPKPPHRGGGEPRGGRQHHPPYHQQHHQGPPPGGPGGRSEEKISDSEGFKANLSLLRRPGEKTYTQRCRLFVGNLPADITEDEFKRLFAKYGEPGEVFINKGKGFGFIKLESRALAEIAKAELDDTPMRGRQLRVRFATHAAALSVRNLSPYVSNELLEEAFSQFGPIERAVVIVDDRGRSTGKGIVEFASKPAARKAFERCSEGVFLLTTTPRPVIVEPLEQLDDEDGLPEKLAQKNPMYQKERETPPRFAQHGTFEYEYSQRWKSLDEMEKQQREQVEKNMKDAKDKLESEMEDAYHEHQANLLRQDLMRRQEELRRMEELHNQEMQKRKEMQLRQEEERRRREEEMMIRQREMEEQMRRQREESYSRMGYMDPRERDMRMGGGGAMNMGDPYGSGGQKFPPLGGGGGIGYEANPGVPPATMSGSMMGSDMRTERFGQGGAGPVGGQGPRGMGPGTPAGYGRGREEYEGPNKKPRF

reduction of binding against WT KLC1: 50%
Substance: Myc-KLC1 ΔTail (domain or fragment)
